Data as given in patent US20190023766A1 (published 2019).

T1: IL-15Rβγc receptors on 32Dβ cells (hIL-15Rβ and murine γC chains) (human; mouse, UniProt P14784 27-551; P34902 23-369)
T1 sequence (looked up) 1: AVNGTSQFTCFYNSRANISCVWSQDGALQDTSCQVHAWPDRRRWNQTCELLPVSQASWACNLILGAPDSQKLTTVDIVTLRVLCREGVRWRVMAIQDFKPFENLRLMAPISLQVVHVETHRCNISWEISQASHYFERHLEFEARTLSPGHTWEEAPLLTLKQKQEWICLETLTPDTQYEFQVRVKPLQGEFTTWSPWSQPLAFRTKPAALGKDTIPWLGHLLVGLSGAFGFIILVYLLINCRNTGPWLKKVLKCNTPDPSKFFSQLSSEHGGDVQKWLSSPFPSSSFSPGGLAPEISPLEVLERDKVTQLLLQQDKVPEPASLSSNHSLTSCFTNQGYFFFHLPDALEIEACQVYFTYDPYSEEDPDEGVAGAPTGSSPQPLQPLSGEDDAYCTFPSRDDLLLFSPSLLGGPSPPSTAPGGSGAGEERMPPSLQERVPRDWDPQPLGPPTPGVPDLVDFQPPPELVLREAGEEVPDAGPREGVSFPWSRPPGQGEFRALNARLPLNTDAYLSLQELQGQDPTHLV
T1 sequence (looked up) 2: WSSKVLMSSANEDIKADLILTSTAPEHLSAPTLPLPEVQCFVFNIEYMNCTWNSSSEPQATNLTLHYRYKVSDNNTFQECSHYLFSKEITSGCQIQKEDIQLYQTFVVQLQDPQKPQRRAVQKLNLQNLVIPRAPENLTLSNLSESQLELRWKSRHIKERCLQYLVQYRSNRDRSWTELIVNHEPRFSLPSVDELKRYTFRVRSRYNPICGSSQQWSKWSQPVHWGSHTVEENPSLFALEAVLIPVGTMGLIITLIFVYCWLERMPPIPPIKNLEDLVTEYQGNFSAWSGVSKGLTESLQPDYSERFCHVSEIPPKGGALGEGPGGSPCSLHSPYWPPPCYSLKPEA


How the values were obtained:
[1] = target: OVA (aa257-264) peptide/H-2Kb complex, soluble (HRP tetramer or biotinylated complex on a streptavidin chip) (mouse) (UniProt P01901); experiment: SPR (BIAcore 2000), biotinylated pMHCI on streptavidin chip
Chain of OVA (aa257-264) peptide/H-2Kb complex, soluble (HRP tetramer or biotinylated complex on a streptavidin chip) (mouse) (P01901 22-305, one chain of several): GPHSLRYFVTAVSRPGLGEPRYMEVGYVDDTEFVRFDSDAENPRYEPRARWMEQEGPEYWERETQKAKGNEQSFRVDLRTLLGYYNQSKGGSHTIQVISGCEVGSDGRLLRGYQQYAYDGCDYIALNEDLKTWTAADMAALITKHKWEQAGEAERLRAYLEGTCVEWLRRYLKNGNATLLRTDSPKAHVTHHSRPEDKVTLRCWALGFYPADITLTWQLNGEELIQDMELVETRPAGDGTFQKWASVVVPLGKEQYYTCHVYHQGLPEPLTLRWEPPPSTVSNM

[2] = target: IL-15Rβγc receptors on 32Dβ cells (hIL-15Rβ and murine γC chains) (human; mouse) (UniProt P14784); experiment: cell-based or functional assay
[3] = target: OVA (aa257-264) peptide/H-2Kb complex, soluble (HRP tetramer or biotinylated complex on a streptavidin chip) (mouse) (UniProt P01901); experiment: SPR (BIAcore 2000), biotinylated pMHCI on streptavidin chip, apparent KD
[4] = target: T1, IL-15Rβγc receptors on 32Dβ cells …; experiment: cell-based or functional assay

| EC50, 32Dβ cell proliferation [2] | EC50, 32Dβ cell proliferation [4] | Molecule | other results |
| --- | --- | --- | --- |
| 300 pM | – | c264scTCR/hIL-15 fusion protein (from UniProt P40933 49-162) | – |
| 300 pM | – | c264scTCR dimer (c264scTCR/hIL-15:c264scTCR/hIL-15RαSu/birA complex) (from UniProt P40933 49-162) | – |

The next lines start with the molecule.

| Molecule | EC50, 32Dβ cell proliferation [2] | EC50, 32Dβ cell proliferation [4] | other results |
| --- | --- | --- | --- |
| OT1scTCR/scCD8 heterodimer (OT1scTCR/hIL-15:scCD8/hIL-15RαSu/birA complex) (from UniProt P40933 49-162; P01731 28-196; P10300 22-175) | – | – | Kd [1]: 2600 nM |
| OT1scTCR dimer (OT1scTCR/hIL-15:OT1scTCR/hIL-15RαSu/birA complex) (from UniProt P40933 49-162) | – | – | Kd [3]: 30 µM |
| in vitro assembled IL-15N72D:IL-15RαSu/Fc complex (IL-15N72D:IL-15RαSu/Fc IVA) (Fc fusion) chain 1: PEAAGG chain 2: PELLGG | – | 15.8 pM | – |
| IL-15N72D:IL-15RαSu/Fc complex (Alt-803), co-expressed and purified (Fc fusion) chain 1: PEAAGG chain 2: PELLGG | – | 15.6 pM | – |
